This is an account of results in the supplement of paper PMC9112550, “Optimization of the antimicrobial peptide Bac7 by deep mutational scanning” (BMC Biology, 2022).

This series deals with Escherichia coli TOP10. Briefly: shrunken log2 fold change of peptide-encoding DNA abundance (4.5 h post-induction vs induction); higher = less antimicrobial activity (less host growth inhibition). Particulars: time post-induction: 4.5 h; library: site-saturation at positions 5, 18, 19, 20.
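Further: peptides expressed intracellularly from a pBAD plasmid library in pooled LB shake-flask culture, induced with 0.3% L-arabinose, DNA abundance read by NGS, three biological replicates, DESeq2 with apeglm shrinkage.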

For the sequence RRIRVRPPRLPRPRPRPFKSPRP, the “shrunken log2 fold change” value turned out to be 0.0446. To RRIRERPPRLPRPRPRPMKCPRP belongs 0.00911; to RRIRDRPPRLPRPRPRPLIFPRP, 0.135.

Turning to RRIRVRPPRLPRPRPRPHFDPRP, the “shrunken log2 fold change” value came out at 0.0221.

In the case of RRIRVRPPRLPRPRPRPWCNPRP, the “shrunken log2 fold change” value is 3.15. With RRIRKRPPRLPRPRPRPGHIPRP the figure was -0.0657. With RRIRIRPPRLPRPRPRPCCCPRP the figure was -0.641; with RRIRCRPPRLPRPRPRPKDAPRP, 0.183; with RRIRSRPPRLPRPRPRPKSAPRP, 0.403. With RRIRHRPPRLPRPRPRPEPEPRP the figure was 0.241; with RRIRHRPPRLPRPRPRPVMEPRP, 0.105; with RRIRNRPPRLPRPRPRPKMKPRP, -0.286. For RRIRKRPPRLPRPRPRPAYNPRP, the “shrunken log2 fold change” value came out at 0.0771. To RRIRNRPPRLPRPRPRPDAVPRP belongs 0.0764; to RRIRIRPPRLPRPRPRPLLMPRP, -0.489. To RRIRMRPPRLPRPRPRPIQMPRP belongs -0.0558; to RRIRRRPPRLPRPRPRPQENPRP, -0.0472; to RRIRERPPRLPRPRPRPMHQPRP, -0.452. With RRIRSRPPRLPRPRPRPLHVPRP the figure was -0.245; with RRIRWRPPRLPRPRPRPWFVPRP, -0.168. With RRIRPRPPRLPRPRPRPAPDPRP, the “shrunken log2 fold change” value is 0.309. With RRIRIRPPRLPRPRPRPSCKPRP the figure was -0.122; with RRIRRRPPRLPRPRPRPNHQPRP, -0.0677. With RRIRPRPPRLPRPRPRPDAPPRP the figure was 0.227. Consider RRIRHRPPRLPRPRPRPPYTPRP, for which the “shrunken log2 fold change” value was -0.266. Take RRIRIRPPRLPRPRPRPCKNPRP: the “shrunken log2 fold change” value is -0.299. With RRIRTRPPRLPRPRPRPRPCPRP the figure was -0.0153; with RRIRRRPPRLPRPRPRPKMWPRP, 0.216.

Turning to RRIRPRPPRLPRPRPRPWCLPRP, the “shrunken log2 fold change” value was -0.514.

As for RRIRTRPPRLPRPRPRPVMEPRP, the “shrunken log2 fold change” value came out at 0.187.

RRIRSRPPRLPRPRPRPMMMPRP: the “shrunken log2 fold change” value was -0.83.

In the case of RRIRMRPPRLPRPRPRPKWRPRP, the “shrunken log2 fold change” value turned out to be 0.797. To RRIRQRPPRLPRPRPRPKQFPRP belongs 0.102; to RRIRKRPPRLPRPRPRPMKWPRP, -0.0374; to RRIRRRPPRLPRPRPRPDHDPRP, 0.335.

In the case of RRIRCRPPRLPRPRPRPQPDPRP, the “shrunken log2 fold change” value is 0.102. With RRIRKRPPRLPRPRPRPCHGPRP the figure was 0.0847; with RRIRIRPPRLPRPRPRPTHAPRP, 0.216. To RRIRRRPPRLPRPRPRPYFRPRP belongs -0.203; to RRIRMRPPRLPRPRPRPHIDPRP, 0.29. For the sequence RRIRRRPPRLPRPRPRPHQVPRP, the “shrunken log2 fold change” value is 0.1. For RRIRLRPPRLPRPRPRPYRWPRP, the “shrunken log2 fold change” value is -0.0173. With RRIRERPPRLPRPRPRPMGCPRP the figure was 0.111. To RRIRRRPPRLPRPRPRPASGPRP belongs 0.302. To RRIRVRPPRLPRPRPRPWVDPRP belongs 0.0379.

As to RRIRARPPRLPRPRPRPYDNPRP, the “shrunken log2 fold change” value is -0.0875. Turning to RRIRWRPPRLPRPRPRPDEYPRP, the “shrunken log2 fold change” value was -0.0763. With RRIRARPPRLPRPRPRPMQRPRP the figure was 0.383; with RRIRNRPPRLPRPRPRPKAVPRP, 0.301; with RRIRSRPPRLPRPRPRPDFAPRP, -0.021. As for RRIRDRPPRLPRPRPRPVQCPRP, the “shrunken log2 fold change” value is -0.242. With RRIRTRPPRLPRPRPRPSKIPRP the figure was -0.24. With RRIRERPPRLPRPRPRPFLGPRP the figure was -0.284; with RRIRQRPPRLPRPRPRPIVLPRP, -0.132. As to RRIRGRPPRLPRPRPRPFYEPRP, the “shrunken log2 fold change” value was determined as 0.0153. With RRIRRRPPRLPRPRPRPRNNPRP the figure was -0.204; with RRIRYRPPRLPRPRPRPMLYPRP, -0.877. To RRIRDRPPRLPRPRPRPMYEPRP belongs 0.183; to RRIRHRPPRLPRPRPRPAVSPRP, -0.378; to RRIRCRPPRLPRPRPRPMVCPRP, -0.143.

For the sequence RRIRWRPPRLPRPRPRPYLQPRP, the “shrunken log2 fold change” value was -0.113. With RRIRRRPPRLPRPRPRPHHEPRP the figure was 0.0234. Turning to RRIRARPPRLPRPRPRPPDRPRP, the “shrunken log2 fold change” value was found to be 0.853.

Consider RRIRYRPPRLPRPRPRPFYHPRP, for which the “shrunken log2 fold change” value was -0.635. With RRIRKRPPRLPRPRPRPITTPRP the figure was -0.174; with RRIRVRPPRLPRPRPRPHSCPRP, -0.0621. With RRIRVRPPRLPRPRPRPFFGPRP the figure was -0.0414; with RRIRARPPRLPRPRPRPKNCPRP, -0.245.

Turning to RRIRYRPPRLPRPRPRPAKLPRP, the “shrunken log2 fold change” value is -0.194.

As to RRIRCRPPRLPRPRPRPNRTPRP, the “shrunken log2 fold change” value is -0.0547.

In the case of RRIRFRPPRLPRPRPRPMACPRP, the “shrunken log2 fold change” value is -0.00146. Consider RRIRQRPPRLPRPRPRPGSQPRP, for which the “shrunken log2 fold change” value was -0.161. As for RRIRDRPPRLPRPRPRPSGCPRP, the “shrunken log2 fold change” value turned out to be 0.0451.

In the case of RRIRFRPPRLPRPRPRPWYHPRP, the “shrunken log2 fold change” value was -0.14. With RRIRVRPPRLPRPRPRPVDWPRP the figure was 0.403; with RRIRLRPPRLPRPRPRPHQRPRP, -0.259. To RRIRVRPPRLPRPRPRPFACPRP belongs -0.395. To RRIRQRPPRLPRPRPRPKHQPRP belongs -0.386. Turning to RRIRLRPPRLPRPRPRPQPMPRP, the “shrunken log2 fold change” value was found to be 0.216.

In the case of RRIRERPPRLPRPRPRPNDSPRP, the “shrunken log2 fold change” value was -0.0224.

As to RRIRHRPPRLPRPRPRPMGLPRP, the “shrunken log2 fold change” value was found to be 0.00622. Regarding RRIRKRPPRLPRPRPRPIAWPRP, the “shrunken log2 fold change” value was found to be 0.155. To RRIRDRPPRLPRPRPRPLWYPRP belongs -0.421. In the case of RRIRFRPPRLPRPRPRPSVEPRP, the “shrunken log2 fold change” value is -0.18. For the sequence RRIRWRPPRLPRPRPRPHIYPRP, the “shrunken log2 fold change” value was -0.358. With RRIRLRPPRLPRPRPRPCDFPRP the figure was 0.092; with RRIRERPPRLPRPRPRPGYNPRP, -0.0871; with RRIRSRPPRLPRPRPRPRQWPRP, 0.69. For RRIRVRPPRLPRPRPRPHDEPRP, the “shrunken log2 fold change” value is 0.0655. With RRIRVRPPRLPRPRPRPKDGPRP the figure was 0.0237. With RRIRYRPPRLPRPRPRPAWHPRP the figure was -0.249. Turning to RRIRLRPPRLPRPRPRPKQIPRP, the “shrunken log2 fold change” value is 0.0389. As for RRIRTRPPRLPRPRPRPFETPRP, the “shrunken log2 fold change” value is -0.117. To RRIRRRPPRLPRPRPRPTGKPRP belongs 0.901; to RRIRQRPPRLPRPRPRPSWHPRP, -0.155.

As for RRIRGRPPRLPRPRPRPIHSPRP, the “shrunken log2 fold change” value is -0.441. As to RRIRPRPPRLPRPRPRPQAHPRP, the “shrunken log2 fold change” value was -0.243. With RRIRARPPRLPRPRPRPQSQPRP the figure was -0.0155. With RRIRARPPRLPRPRPRPCNIPRP the figure was -0.671; with RRIRDRPPRLPRPRPRPSEPPRP, 0.06. Take RRIRFRPPRLPRPRPRPQILPRP: the “shrunken log2 fold change” value is -0.713. With RRIRPRPPRLPRPRPRPYIMPRP the figure was -0.976; with RRIRVRPPRLPRPRPRPYFQPRP, -0.649; with RRIRSRPPRLPRPRPRPCKTPRP, 0.0503. With RRIRMRPPRLPRPRPRPFSSPRP the figure was 0.0321. To RRIRCRPPRLPRPRPRPPATPRP belongs 0.887; to RRIRPRPPRLPRPRPRPQYGPRP, -0.725.

As to RRIRRRPPRLPRPRPRPIFRPRP, the “shrunken log2 fold change” value was 0.584.

Take RRIRVRPPRLPRPRPRPQFTPRP: the “shrunken log2 fold change” value was -0.697. With RRIRMRPPRLPRPRPRPLHSPRP the figure was 0.0835; with RRIRDRPPRLPRPRPRPSMGPRP, -0.11.

Turning to RRIRPRPPRLPRPRPRPSRYPRP, the “shrunken log2 fold change” value was -0.163.

As to RRIRQRPPRLPRPRPRPCAFPRP, the “shrunken log2 fold change” value is -0.254. To RRIRIRPPRLPRPRPRPALPPRP belongs -0.0671; to RRIRTRPPRLPRPRPRPCGAPRP, 0.0999; to RRIRIRPPRLPRPRPRPPEEPRP, 0.0652. With RRIRYRPPRLPRPRPRPQPMPRP the figure was -0.159; with RRIRARPPRLPRPRPRPCHEPRP, -0.055.

Turning to RRIRQRPPRLPRPRPRPTSMPRP, the “shrunken log2 fold change” value was -0.049.

Consider RRIRFRPPRLPRPRPRPWETPRP, for which the “shrunken log2 fold change” value came out at 0.0299. On to RRIRDRPPRLPRPRPRPSYLPRP, for which the “shrunken log2 fold change” value was -0.233. With RRIRTRPPRLPRPRPRPVQNPRP the figure was 0.138; with RRIRFRPPRLPRPRPRPHPPPRP, 1.27; with RRIRWRPPRLPRPRPRPPRMPRP, 0.348. To RRIRRRPPRLPRPRPRPMTWPRP belongs -0.154.
